According to US20150023979A1 (VALDOSPAN, published 2015):

Key:
[1] = target: T1, HPV18 E7 protein, recombinant (His-TEV-E7 fusion from E. coli) (Human Papilloma Virus type 18 (HPV18), UniProt P06788 1-105, CKII phosphorylation of the consensus site serines in the antigen preparation of Example 2; biotin on primary amines in the SPR assay); assay: ELISA and dot-blot, semiquantitative crossreactivity
T1 construct: mature; also called VE7_HPV18; not shown: N-terminal 6x Histidine tag and TEV cleavage site of the vector
T1 sequence: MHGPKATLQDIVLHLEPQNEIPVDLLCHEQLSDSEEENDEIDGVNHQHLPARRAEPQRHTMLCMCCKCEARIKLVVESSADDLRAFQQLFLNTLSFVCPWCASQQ

[2] = target: T1, HPV18 E7 protein, recombinant …; assay: ELISA and dot-blot, semiquantitative crossreactivity (+ weak interaction)
Procedure: Using ELISA and dot-blot techniques semiquantitative crossreactivities of the isolated mAbs was analysed. For this various mAbs were tested against the accepted high risk species.

[3] = target: T2, HPV33 E7 protein, recombinant (His-TEV-E7 fusion from E. coli) (Human Papilloma Virus type 33 (HPV33), UniProt P06429 1-97, CKII phosphorylation of the consensus site serines in the antigen preparation of Example 2; biotin on primary amines in the SPR assay); assay: as above
T2 construct: mature; also called VE7_HPV33; not shown: N-terminal 6x Histidine tag and TEV cleavage site of the vector
T2 sequence: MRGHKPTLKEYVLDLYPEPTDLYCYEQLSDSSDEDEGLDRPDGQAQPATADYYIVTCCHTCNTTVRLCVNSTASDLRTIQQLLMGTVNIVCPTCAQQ

[4] = target: T3, HPV45 E7 protein, recombinant (His-TEV-E7 fusion from E. coli) (Human Papilloma Virus type 45 (HPV45), UniProt P21736 1-106, CKII phosphorylation of the consensus site serines in the antigen preparation of Example 2; biotin on primary amines in the SPR assay); assay: SPR (BIAcore X100), biotin-E7 on streptavidin SA chip, antibody as analyte, bivalent analyte fit, 25 C
T3 construct: mature; also called VE7_HPV45; not shown: N-terminal 6x Histidine tag and TEV cleavage site of the vector
T3 sequence: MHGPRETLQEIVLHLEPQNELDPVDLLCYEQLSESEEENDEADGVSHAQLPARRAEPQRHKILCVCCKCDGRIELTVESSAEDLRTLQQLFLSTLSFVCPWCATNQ

[5] = target: T1, HPV18 E7 protein, recombinant …; assay: as above

B1: ACAB164 (antibody, V domains shown)
VH: EVQLQQSGLALVQPGASVKISCRTSGYTFTEYTLHWVKQSHGKSLEWIGGINPNNGSPKYNQKFKGKATLTVDKSSSTAYMELRSLTSEDSAVYYCARLDINSFFDYWGQGTTLTVSS
VL: DVVMTQSPLSLPVSLGDQASISCRSSQSLVHSNGNTYLQWYLQKPGQSPKLLIYKLSNRFSGVPDRFSGSGSGTDFTLKISRVEAEDLGVYSCSQTTHVPPTFGGGTKLEIKR
notes: the printed entries run on into the first residues of the constant domains; also called HPV16E7 IgG2a antibody ACAB164
binding result [1]: no binding

B2: ACAB161 (antibody, IgG2a, V domains shown)
VH: EVMLVESGGGLVKPGGSLKLSCAASGFTFSRYTMSWVRQTPEKRLEWVATISSGGTNTNYTDSVKGRFTISRDNAKNNLYLQMSSLRSEDTALYYCTRGVRRGDGYAMDYWGQGTSVTVSS
VL: DIVLTQAAPSVPVTPGESVSISCRSTKSLLHSNGNTYLYWFLQRPGQSPQALIYRTSNLASGVPDRFSGSGSGTAFTLRISRVEAEDVGVYYCMQHLEYPLTFGAGTKLELKR
notes: the printed entries run on into the first residues of the constant domains; also called HPV16E7 IgG2a antibody ACAB161
binding result [2]: binds

B3: ACAB452 (antibody, IgG1, V domains shown)
VH: DVQLQESGPGLVKPSQSLSLTCTVTGYSITSDYAWNWIRQFPGNKLEWVGYITYSGSTNYNPSLKSRISITRDTSKNQFFLQFNSVTSEDTATYFCARSWFAYWGQGTLVTVSS
VL: DIVMTQTPLSLPVSLGDQASISCRSSQSLVHSNGNTYLHWFLQKPGQSPKLLIYKVSNRFSGVPDRFSGSGSGTDFTLKISRVEAEDLGVYFCLQSAHVPLTFGAGTKLELTR
notes: also called HPV45E7 IgG1 antibody ACAB452
binding result [3]: binds | Kd [4]: 10.6 nM | kon [4]: 52100 M⁻¹ s⁻¹ | kon [5]: 94700 M⁻¹ s⁻¹
